Experimental data: the supplement of paper PMC7125110
± gives the standard error. This sample holds only a part of the variants without activity.

B1: glmS ribozyme (parent)
chain: AUAAAAGCGCCAGAACUACAGAAAUGUAGUUGACGAGGAGGAGGUUUAUCGAAUUUUCGGCGGAUGCCUCCAAA

Columns and labels:
Details in all cases: with glucosamine-6-phosphate
glucosamine-6-phosphate [1] = variants of: B1; assay: self-cleavage kobs at 640 uM GlcN6P; higher = faster cleavage; RNA array
Summary of the method: (§1)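 Using a hybridised Cy3 probe at 37 °C, barcoded ribozyme variants transcribed in situ by E. coli RNA polymerase on sequenced MiSeq chips were monitored across tiles imaged over ~14 h. The flow contained glucosamine-6-phosphate from 40 μM to 10 mM in HEPES/KCl/Mg(OAc)2 buffer. Signals were normalised to baseline and to non-cleaving reference variants before per-tile medians were fit to one- or two-exponential decays to yield kobs. Weighted Michaelis–Menten fits across concentrations gave kcat and KM.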

glucosamine-6-phosphate [2] = variants of: B1; assay: self-cleavage kobs at 2500 uM GlcN6P; higher = faster cleavage; RNA array
Summary of the method: as §1

glucosamine-6-phosphate [3] = variants of: B1; assay: self-cleavage kobs at 10000 uM GlcN6P; higher = faster cleavage; RNA array
Summary of the method: as §1

| Variant | self-cleavage kobs at 640 uM GlcN6P (glucosamine-6-phosphate [1]) [s⁻¹] | self-cleavage kobs at 2500 uM GlcN6P (glucosamine-6-phosphate [2]) [s⁻¹] | self-cleavage kobs at 10000 uM GlcN6P (glucosamine-6-phosphate [3]) [s⁻¹] |
| --- | --- | --- | --- |
| AUAAAAGCGCCAGAACUACAGAAAUGUAUUUGACGAAGAGGAGGUUUAACGAAUUUUGGGCUGAUGCCUCCAAA | < 1e-05 |  |  |
| AUAAAAGCGCCAUAAUUACAGAAAUGUAAUUGACGAGGAGGAGGUUUAUCGAAUUUUCGGCGGAUGCCUCCAAA | 0.000601 ± 0.00017 |  |  |
| AUAAAAGCGCUAGAACUACAGAAAUGUAGUUGUCGAGGAGGAGGUUUAUCGACUUUUCGGCGGAUGCCUCCAAA | < 1e-05 |  |  |
| AUAAAAGCGCGAGAACUACAGAAAUGUAGUUGACGAGGAGGACGCUUAUCGAAUUUUCGGCGGAUGCCUCCAAA | < 1e-05 | < 1e-05 |  |
| AUAAAAGCGCCAGAACUACAGAAAUGUAGUUGACGAGGAGGACGUUUAUCUAAUUUUCGGGGGAUGCCUCCAAA | < 1e-05 | < 1e-05 |  |
| AUAAAAGCGCCAGAACUACAGAAAUGUAGUUGACGAGGAUGAGGUUUAUAGAAUUUUCGGCGGAUGGCUCCAAA | < 1e-05 |  |  |
| AUAAAAGCGCCAGAACUACAGAAAUGUAGUAGACGAGGAGGAGGUUUAUCGAAUUUUGGGCGGCUGCUUCCAAA | 0.00011 ± 3.5e-05 | 8.36e-05 ± 2.2e-05 |  |
| AUAAAAGCGCUAGAACUACAGAAAUGUAGUCGACGAGGAGCAGGUUUACCGAAUUUUCGGCAGAUGCCUCCAAA | < 1e-05 |  |  |
| AUAAAAGCGCCAGUACUACAGAAAUAUAGUUGACGAGGAGGAGGUUUAUCGAAUUUUCGGCGGAUGCGUCCAAA | 5e-05 ± 2e-05 | 4.16e-05 ± 1.8e-05 |  |
| AUAAAAGCGCCUGAACUACAGAAAUGUAGUUGACGAGGAGGAGGUUUAUCGAAUUUUUGGGCGGAUGCCUCAAA | 7.34e-05 ± 2.4e-05 | 7.58e-05 ± 1.9e-05 |  |
| AUAAACGCGCCAGAACUACAGAAAUGUAGUUGGCGAGGAGGAGGUCUAUCGAAUUUUCGGGGGAUGCCUCCAAA | < 1e-05 | < 1e-05 |  |
| AUAAAAGCGCCAGAACUACAGAAAUGUAGUUGACGCGGAGUAGGUUUAUCGAAUUUUCGGCGGCUGCCUCCAAA | < 1e-05 | < 1e-05 |  |
| AUAAAAGCGCCAGAACUACAGAAAUGUAGUUGACAAAGAGGAGGUAUAUCCAAUUUUCUGCGGAUGCCUCCAAA | < 1e-05 | < 1e-05 |  |
| AUAAAAGCGCCAGAACUACAGAAAUGUAGUUGACCAGAAGGAGGUUUAUCGAAUUUUCGGCGGAUGCCGCCAAA | 0.00083 ± 0.00024 |  |  |
| AUAAAAGCGCCCGAACUACAGAAAUGUAGUUGACGAGGAGGAGGUUUAUCGUAUUUACGGCGGAUGCCUCCAAA | 0.000131 ± 2.7e-05 | 0.000458 ± 5.1e-05 |  |
| AUAAAAGCGCUCGAACUACAGAAAUGUAGUGUACGAGGAGGAGGUUUAUCGAAUUUGCGGCGGAUGCCUCCAAA | < 1e-05 |  |  |
| AUAAAAGGGCCAGAACUACAGAAAUGUAGUUGACGAGGAGGAGGUUUAUCGAAUUUUCUGCGGAUUCCUCCAAA | < 1e-05 |  |  |
| AUAAAAGCGCAAGAACUACAGAAAUGUAGUUGACGAGGAGGAGUUUUGUCGAAUUUUCGGAGGAUGCCUCCAAA | < 1e-05 |  |  |
| AUAAAGGCGCCAGAACUACAGAAAUGUAGUUUACGAGGAGGAGGUUUAUCGAAUUUUCGGAGGAUGCCUCCAAA | < 1e-05 | < 1e-05 |  |
| AUAAAAGCGCCAGAACUACAGAAAUGUAGUUCACGAGGAGGAGGUUGAUCGAAUUUUCCGCGGAUGCCUCCAAA | < 1e-05 | < 1e-05 |  |
| AUAAAAGCGCCAGAACUACAGAAAUGUAGUUGGCGAGGAGGAGGUUUAUCGAAUUUACGGCGGAUGCCUCCAAA | < 1e-05 | < 1e-05 |  |
| AUAAAAGCGCCCGAGCUACAGAAAUGUAGUUGACGAGGCGGAGGUUUAUCGAAUUUUCGGCGGAUGCCUCCAAA | 5.62e-05 ± 1.6e-05 | 0.000163 ± 4.9e-05 |  |
| AUAAAAGCGCCAGAACUCCAGAAAUGUAGUUGACGAGGAGGAGGUUUAUCGAAUUCUCGGCGGAGGCCUCCAAA | 5.82e-05 ± 2.6e-05 | 0.000131 ± 6.1e-05 |  |

| Variant | self-cleavage kobs at 640 uM GlcN6P (glucosamine-6-phosphate [1]) [s⁻¹] | self-cleavage kobs at 2500 uM GlcN6P (glucosamine-6-phosphate [2]) [s⁻¹] | self-cleavage kobs at 10000 uM GlcN6P (glucosamine-6-phosphate [3]) [s⁻¹] |
| --- | --- | --- | --- |
| AUAAAAGCGCCAGAACUACAGAAAUGUAGUUGACGAGGACGAGGUUUAUCGAAUUCUCGGCGGCUGCCUACAAA | < 1e-05 |  |  |
| AUAAAAGCGCCAGAACUACAGAAAUGUAGUUGACGGCGAGGAGGUCUAUCGAAUUUUCGGCGGAUGCCUCCAAA | < 1e-05 | < 1e-05 |  |
| AUAAAAGAGCCAGAACUACAGAAAUGUAGCUGACGAGGAGGAGGUUUAUCUAAUUUUCGGCGGAUGCCUCCAAA | < 1e-05 |  |  |
| AUAAAAGCGCCAGAACUACAGAAAUGUAGUUGACGUGGAGGAGGUUUAUCGAAUCUUCGUCGGAUGCCUCCAAA | < 1e-05 |  |  |
| AUAAAAGCGCCAGUACUACAGAAAUGUAGUUGACGAGGAGGACGUUUAUCGAAUUUUCGGCGGAUGCCUCCAAA | < 1e-05 | < 1e-05 | < 1e-05 |
| AUAAAAGCGCCUGAACUACAGAAAUGUAAUCGACGAGGAGGAGGUUUAUCGAAUUUUCGGCGGAUGCCUCCAAA | 0.000169 ± 4.1e-05 | 0.00041 ± 0.00015 | 0.000943 ± 0.00018 |
| AUAAAAGCGACAGAAAUACAGAAAUGUAGUUGACGAGGAGGAGGUUUAUCGAAUUUUCGGCGGAUGCAUCCAAA | 0.000126 ± 4.7e-05 |  |  |
| AUAAAAGCGCCAGAACUACAGAAAUGUAGUUGACGAGGAGUAGGUUUAUAGAAUUUUCGGCGGAAGCCUCCAAA | < 1e-05 |  |  |
| AUAAAAGCGCCCGCACUACAGAAAUGUAGUUGACGAGGAGGAGGUUUUUCGAAUUUUCGACGGAUGCCUCCAAA | < 1e-05 |  |  |
| AUAAAGGCGCCAGAACUACAGAAAUGUAGUGGACGAUGAGGAGGUUUAUCGAAUUUUCGGCGGAUGCCUCCAAA | < 1e-05 | < 1e-05 |  |
| AUAAAAGCGCCCGAACUACAGAAAUGUAGAUGACAAGGAGGAGGUUUAUCGAAUUUUCGGCGGAUGCCUCCAAA | < 1e-05 | < 1e-05 | < 1e-05 |
| AUAAAAGCGCCAGAGCUACAGAAAUGUAGUUGACGAGGAGGAGGCUUAUCGAAUUUCCGGCGGAUGCCUCCAAA | < 1e-05 |  |  |
| AUAAAAGCGGCAGAACUACAGAAAUGUAGUUGACGAGGAGGAGGUUUACCGAAUUUUCGGCGGAUCCCUCCAAA | < 1e-05 | < 1e-05 |  |
| AUAAAAGCGCCAGAACUACAGAAAUGUAGUUGACGAGGAGGAGGUUUAUCGAAUAAUCGGCGGAUGCCUCCAAA | 0.00306 ± 0.00092 | 0.00346 ± 0.0013 | 0.0126 ± 0.0024 |
| AUAAAUGCGCCAGAACUACAGAAAUGUAGUUGACGAGGAGGAGUUUUAGCGAAUUUUCGGCGGAUGCCUCCAAA | < 1e-05 |  |  |
| AUAAAAGCGCGAGAACUACAGAAAUGUAGUUGACGAGGAGGAGGCCUAUCGAAUUUUCGGUGGAUGCCUCCAAA | < 1e-05 | < 1e-05 |  |
| AUAAAAGCGCCAGAACUACAGAAAUGUAAUUGACGAGGAGGAGGUUUUUCGAAUUUUCGGCCGAUGCCUCCAAA | < 1e-05 |  |  |
| AUAAAUGCGCCAGAAUUACAGAAAUGUAGUUGACGAGGAUGAGGUUUAUCGAAUUUUCGGCGGAUGACUCCAAA | < 1e-05 | < 1e-05 |  |
| AUAAAAGCGCCAGAACUACAGAAAUGUAGUUGACGGGUAGGAGGUUUAUAGAAUUUUCGGCAGAUGCCUCCAAA | < 1e-05 |  |  |
| AUAAAAGCGCCAGUACUACAGAAAUGUAGUUGACGAGGAGGAGGUUUAUGGAAUUUUCGGCAGAUGCCUCCAAA | 0.000193 ± 8.2e-05 |  |  |
| AUAAAAGCGCCAGAACUACAGAAAUGUAGUUGACGAGGAGGAGGUUUAUCGAAUGUUCGGCGUAGGCCUCCAAA | < 1e-05 | < 1e-05 |  |
| AUAAAGGCGCCAGAACUACAGAAAUGUAGUUGACGAGGAGGAGGUUUAUCGAAUUUUCGGCGCAUGACUCCAAA | < 1e-05 |  |  |
| AUAAAAGGGCCAGAACUACAGAAAUGUAGUUGACGAGGAGAAGGUUUAUCGUAUUUUCGGCGGAUGCCUCCAAA | < 1e-05 | < 1e-05 |  |
